Laboratory results reported in patent US20250388889A1 (priority 2019, published 2025).
“And” between values parts separate entries of the source, which are not always exact repeats. Equal entries are not always repeated. “Also recorded” adds a separate entry of the source. Marks after values point to notes of the source that are not given here.

Tests used:
c-MYC [1] = assay type: cell-based, human
[2] = test system: A498 kidney epithelial cells; assay type: cell-based, human
CK1α1 [3] = assay type: cell-based, human
MB49 bladder tumors = details: mouse, in vivo
CK1α1 [4] = molecular target: CK1α1 (Homo sapiens, UniProt P48729)
Method: Kidney epithelial cells were stained with rabbit anti-c-MYC (Abcam), rabbit anti-CK1α1 (Cell Signaling Technology), rabbit anti-c-MYB (Sigma Aldrich), rabbit anti-CEBPD (Abcam) or mouse anti-his6-tag primary antibodies (1:200 in 5% FBS/PBS, overnight at 4° C.), followed by secondary goat anti-rabbit Alexa Fluor 488-conjugated or goat-anti mouse Alexa Fluor 568-conjugated antibodies (Molecular Probes, A-11034) (1:200 in 5% FBS and 0.025% Triton X-100/PBS, 1 hour at room temperature). Cells were counterstained with DRAQ5 (Abcam) and examined using a LSM 510 META laser scanning confocal microscope (Carl Zeiss). Fluorescence signal was quantified in 50 cells per condition using Image J.
Cells were lysed with NP-40 lysis buffer supplemented with protease and phosphatase inhibitors (Roche diagnostics). Proteins were run on SDS-PAGE (4-12% Bis-Tris gels, Invitrogen), blotted onto PVDF membranes (Biorad), blocked and stained with primary rabbit anti-c-MYC (1:1000, Abcam), rabbit anti-CK1α1 (1:1000, Cell Signaling Technology) or rabbit-anti-Lon (1:2000, Biorbyt) overnight at 4° C. Membranes were washed and stained with HRP-conjugated goat anti-rabbit HRP conjugated secondary antibodies (1:4000, Cell Signaling) washed again, imaged using ECL plus detection reagent (GE Healthcare) and quantified by ImageJ. β-actin was used as a loading control.

c-MYC [5] = molecular target: T1, c-MYC (Homo sapiens, UniProt P01106); test: In vitro degradation assay of recombinant c-MYC by Lon protease; assay type: biochemical
T1 construct: GST
Method: […] Proteins were incubated at 37° C. for 60, 120 or 240 minutes and were denatured using 10 mM DTT in NuPAGE Sample Buffer at 100° C. for 5 minutes before further analysis.
Samples were diluted with NuPAGE LDS sample buffer (Invitrogen) mixed with 10 mM dithiotreitol (DTT) and incubated at 56° C. for 20 min followed by addition of iodoacetamide (IAA) to a final concentration of 20 mM. Samples were loaded on 4-12% NuPAGE (Invitrogen). The electrophoresis was run in MOPS buffer. The gel was Coomassie stained and bands of interest were excised from the SDS-PAGE and trypsin digested, followed by identification using LC-MS/MS as per above. MS/MS spectra were investigated with PEAKS (version 10) against UniProt Human (released 2020 Feb. 21) where the sequence for GST-tag-MYC had been added. The precursor tolerance and fragment tolerance were set to 10 ppm and 0.05 Da, respectively. None enzyme was selected, methionine oxidation and deamidation of asparagine and glutamine were treated as dynamic modification and carbamidomethylation of cysteine as a fixed modification.

MAX [6] = molecular target: T2, MAX (Homo sapiens, UniProt P61244); test: In vitro degradation assay, MAX; assay type: biochemical
Method: (§1) 0.1 μg of recombinant proteins were incubated with 0.2 μg of Lon protease (Abcam, ab141921), or PBS, in a reaction buffer consisting of 20 mM MgCl2 in the presence of ATP (2 mM) in 50 mM Tris. pH 8.0. Proteins were incubated at 37° C. for 60, 120 or 240 minutes and were denatured using 10 mM DTT in NuPAGE Sample Buffer at 100° C. for 5 minutes before further analysis.

AKT = assay type: biochemical
CDK9 = CDK9 (Homo sapiens, UniProt P50750); test: In vitro degradation assay, CDK9; assay type: biochemical
Method: as §1

CBEB1 = CBEB1 (Homo sapiens, UniProt Q9BZB8); test: In vitro degradation assay, CPEB1; assay type: biochemical
Method: as §1

HH3 = assay type: biochemical
Actin = assay type: biochemical
GRP75 = GRP75 (Homo sapiens, UniProt P38646); test: In vitro degradation assay, GRP75; assay type: biochemical
Method: as §1

c-MYC [7] = molecular target: T1, c-MYC; assay type: binding
MAX [8] = molecular target: T2, MAX; assay type: binding
c-MYC [9] = assay type: cell-based, human; remark: listed apart in the source
c-MYB = assay type: cell-based, human
CEBP-δ = assay type: cell-based, human
intestinal polyps = test system: intestinal polyps; design: species or system C57BL/6J-APC^min/J mice; details: mouse, in vivo
[10] = mouse, in vivo
[11] = mouse, in vivo; remark: listed apart in the source

T1 sequence (P01106 16-454): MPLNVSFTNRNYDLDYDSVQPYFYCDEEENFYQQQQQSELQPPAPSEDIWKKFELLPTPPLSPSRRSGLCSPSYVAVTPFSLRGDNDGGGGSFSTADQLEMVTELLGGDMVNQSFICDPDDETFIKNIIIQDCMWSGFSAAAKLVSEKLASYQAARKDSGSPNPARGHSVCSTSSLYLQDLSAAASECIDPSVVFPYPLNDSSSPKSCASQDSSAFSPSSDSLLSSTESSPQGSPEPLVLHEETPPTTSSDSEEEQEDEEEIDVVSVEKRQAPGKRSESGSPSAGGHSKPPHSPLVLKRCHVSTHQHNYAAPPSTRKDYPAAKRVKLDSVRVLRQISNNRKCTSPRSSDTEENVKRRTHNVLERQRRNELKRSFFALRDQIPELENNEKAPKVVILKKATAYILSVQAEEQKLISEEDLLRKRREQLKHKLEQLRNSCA
CK1α1 (Homo sapiens, UniProt P48729), sequence (P48729 whole entry): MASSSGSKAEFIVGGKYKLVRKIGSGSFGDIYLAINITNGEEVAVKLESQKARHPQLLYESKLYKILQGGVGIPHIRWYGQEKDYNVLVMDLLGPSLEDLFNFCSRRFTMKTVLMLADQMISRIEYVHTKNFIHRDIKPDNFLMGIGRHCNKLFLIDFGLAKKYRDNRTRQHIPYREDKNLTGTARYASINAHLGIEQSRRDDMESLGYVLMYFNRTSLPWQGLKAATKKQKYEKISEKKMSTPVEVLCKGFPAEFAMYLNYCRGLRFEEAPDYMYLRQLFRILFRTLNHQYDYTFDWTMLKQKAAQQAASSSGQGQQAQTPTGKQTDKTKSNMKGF
T2 sequence (P61244 whole entry, species assumed): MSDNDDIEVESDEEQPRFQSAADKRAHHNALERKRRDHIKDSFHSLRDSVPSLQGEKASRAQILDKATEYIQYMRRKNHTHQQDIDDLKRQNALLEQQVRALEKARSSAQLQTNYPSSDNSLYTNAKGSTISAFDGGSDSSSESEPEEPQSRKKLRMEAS
GRP75, sequence (P38646 47-679, species assumed): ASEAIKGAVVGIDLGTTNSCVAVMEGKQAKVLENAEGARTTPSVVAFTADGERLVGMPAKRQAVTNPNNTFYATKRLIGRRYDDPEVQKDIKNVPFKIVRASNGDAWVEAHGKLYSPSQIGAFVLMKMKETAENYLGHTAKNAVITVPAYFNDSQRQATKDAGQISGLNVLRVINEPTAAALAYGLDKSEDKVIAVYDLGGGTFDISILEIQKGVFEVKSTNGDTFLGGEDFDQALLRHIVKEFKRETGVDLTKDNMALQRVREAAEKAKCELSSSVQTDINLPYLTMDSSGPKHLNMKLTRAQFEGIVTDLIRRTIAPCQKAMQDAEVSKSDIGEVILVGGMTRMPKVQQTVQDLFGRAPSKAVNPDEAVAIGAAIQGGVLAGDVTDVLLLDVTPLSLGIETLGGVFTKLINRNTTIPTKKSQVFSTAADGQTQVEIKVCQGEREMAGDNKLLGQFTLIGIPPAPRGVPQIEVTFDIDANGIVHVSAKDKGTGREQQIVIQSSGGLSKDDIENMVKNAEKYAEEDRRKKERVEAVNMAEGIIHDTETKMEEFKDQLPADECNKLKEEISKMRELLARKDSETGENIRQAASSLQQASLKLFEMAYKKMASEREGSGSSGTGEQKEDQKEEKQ
CBEB1, sequence (Q9BZB8 whole entry): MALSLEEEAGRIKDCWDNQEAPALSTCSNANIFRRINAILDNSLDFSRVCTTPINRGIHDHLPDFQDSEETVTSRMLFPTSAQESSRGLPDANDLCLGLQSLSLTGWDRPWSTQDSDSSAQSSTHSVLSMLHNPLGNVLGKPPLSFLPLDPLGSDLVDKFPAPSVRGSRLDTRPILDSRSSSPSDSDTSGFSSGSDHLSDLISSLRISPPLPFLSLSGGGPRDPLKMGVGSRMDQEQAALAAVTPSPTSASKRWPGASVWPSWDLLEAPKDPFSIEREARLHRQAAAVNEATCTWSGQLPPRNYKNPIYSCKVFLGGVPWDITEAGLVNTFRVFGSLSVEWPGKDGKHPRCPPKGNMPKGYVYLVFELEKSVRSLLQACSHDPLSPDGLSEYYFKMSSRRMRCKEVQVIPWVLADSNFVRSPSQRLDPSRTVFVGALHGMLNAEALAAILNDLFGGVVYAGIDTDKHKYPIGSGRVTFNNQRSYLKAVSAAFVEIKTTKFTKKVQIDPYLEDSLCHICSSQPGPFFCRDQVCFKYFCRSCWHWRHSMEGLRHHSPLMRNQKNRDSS
CDK9, sequence (P50750 whole entry, species assumed): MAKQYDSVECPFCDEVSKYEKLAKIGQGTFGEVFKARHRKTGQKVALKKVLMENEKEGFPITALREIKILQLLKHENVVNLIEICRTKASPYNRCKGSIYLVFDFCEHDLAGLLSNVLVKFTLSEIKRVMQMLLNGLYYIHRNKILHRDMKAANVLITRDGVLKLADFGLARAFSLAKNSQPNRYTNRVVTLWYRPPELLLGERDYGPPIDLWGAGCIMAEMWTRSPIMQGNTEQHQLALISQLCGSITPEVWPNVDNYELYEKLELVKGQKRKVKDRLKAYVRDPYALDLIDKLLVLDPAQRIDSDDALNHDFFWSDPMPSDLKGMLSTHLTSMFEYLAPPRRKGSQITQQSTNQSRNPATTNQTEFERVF

[Ca+2].[Cl-].[Cl-] [CaCl2]
Effect of metal ion pretreatment of E. coli 536 on c-MYC inhibition (c-MYC [1]): no effect

O=C(N/N=C/c1ccc(O)c(O)c1)c1cc2ccccc2cc1O [Dynasore]
Lon protease staining and uptake after endocytosis inhibitor pre-treatment [2]: reduced Lon protease staining and uptake

O=C(O)CN(CCOCCOCCN(CC(=O)O)CC(=O)O)CC(=O)O [EGTA, Egtazic acid]
Effect on CK1α1 activation (CK1α1 [3]): inhibited the activation of CK1α1

COc1cccc2c1C(=O)c1c(O)c3c(c(O)c1C2=O)C[C@@](O)(C(=O)CO)C[C@@H]3O[C@H]1C[C@H](N)[C@@H](O)[C@H](C)O1 [Epirubicin, reference compound]
Bladder size % Sham (range) (MB49 bladder tumors): 65 (53-70)^b % Sham
Bladder weight g^−1 (range) (MB49 bladder tumors): 3.9 (3.2-4.8)^b g^−1

COc1cc(OC)c(C=C2C(O)=Nc3ccccc32)c(OC)c1 [IC261]
Effect on c-MYC degradation in infected cells (CK1α1 [4]; 100 μg/ml, 30 minutes pre-treatment, E. coli 536): reduced c-MYC degradation
Effect on c-MYB inhibition by E. coli 536 (CK1α1 [4]; 30 minutes): reversed c-MYB inhibition

[Cl-].[Cl-].[Mg+2] [MgCl2]
Effect of metal ion pretreatment of E. coli 536 on c-MYC inhibition (c-MYC [1]): no effect

CO[C@@]12[C@H](COC(N)=O)C3=C(C(=O)C(C)=C(N)C3=O)N1C[C@@H]1N[C@@H]12 [Mitomycin, reference compound]
Bladder size % Sham (range) (MB49 bladder tumors): 67 (54-87)^b % Sham
Bladder weight g^−1 (range) (MB49 bladder tumors): 4 (3.4-5.9)^b g^−1

[Cl][Mn][Cl] [MnCl2]
Effect of metal ion pretreatment of E. coli 536 on c-MYC inhibition (c-MYC [1]): no effect

O=c1c(O)c(-c2ccc(O)c(O)c2)oc2cc(O)cc(O)c12 [Quercetin]
Lon protease staining and uptake after endocytosis inhibitor pre-treatment [2]: reduced Lon protease staining and uptake

[Cl-].[Cl-].[Zn+2] [ZnCl2]
Effect of metal ion pretreatment of E. coli 536 on c-MYC inhibition (c-MYC [1]): reversed c-MYC inhibition
Effect of treating the active E. coli 536 supernatant on MYC levels in host cells (c-MYC [1]): did not affect MYC levels in host cells

B1: Lon protease: Recombinant bacterial (E. coli) ATP-dependent serine peptidase Lon, commercially produced in E. coli K12 (protein, UniProt P0A9M0 2-784, looked up)
Lon protease: NPERSERIEIPVLPLRDVVVYPHMVIPLFVGREKSIRCLEAAMDHDKKIMLVAQKEASTDEPGVNDLFTVGTVASILQMLKLPDGTVKVLVEGLQRARISALSDNGEHFSAKAEYLESPTIDEREQEVLVRTAISQFEGYIKLNKKIPPEVLTSLNSIDDPARLADTIAAHMPLKLADKQSVLEMSDVNERLEYLMAMMESEIDLLQVEKRIRNRVKKQMEKSQREYYLNEQMKAIQKELGEMDDAPDENEALKRKIDAAKMPKEAKEKAEAELQKLKMMSPMSAEATVVRGYIDWMVQVPWNARSKVKKDLRQAQEILDTDHYGLERVKDRILEYLAVQSRVNKIKGPILCLVGPPGVGKTSLGQSIAKATGRKYVRMALGGVRDEAEIRGHRRTYIGSMPGKLIQKMAKVGVKNPLFLLDEIDKMSSDMRGDPASALLEVLDPEQNVAFSDHYLEVDYDLSDVMFVATSNSMNIPAPLLDRMEVIRLSGYTEDEKLNIAKRHLLPKQIERNALKKGELTVDDSAIIGIIRYYTREAGVRGLEREISKLCRKAVKQLLLDKSLKHIEINGDNLHDYLGVQRFDYGRADNENRVGQVTGLAWTEVGGDLLTIETACVPGKGKLTYTGSLGEVMQESIQAALTVVRARAEKLGINPDFYEKRDIHVHVPEGATPKDGPSAGIAMCTALVSCLTGNPVRADVAMTGEITLRGQVLPIGGLKEKLLAAHRGGIKTVLIPFENKRDLEEIPDNVIADLDIHPVKRIEEVLTLALQNEPSGMQVVTAK
c-MYC degradation, comparative analysis of protein degradation (c-MYC [5]; FIG. 17i): degraded after 3 hours
c-MYC remaining after Lon dependent degradation (c-MYC [5]; Recombinant c-MYC (1 μg) with Lon protease (2 μg), 37° C., 0 to 4 hours, from 200 ng, n=3): 79 ng
Number of specific c-MYC peptides found after rLon degradation (LC-MS/MS) (c-MYC [5]; control sample 23 peptides): 10
c-MYC sequence covered by specific peptides after rLon degradation (LC-MS/MS) (c-MYC [5]; control sample 51%): 23%
c-MYC degradation in vitro (c-MYC [5]; recombinant c-MYC, kinetics): degrade recombinant c-MYC in vitro, in a time dependent manner
Degradation of MAX in vitro (MAX [6]): not detected
Degradation of AKT in vitro (AKT): not degraded
Degradation of CDK9 in vitro (CDK9): not degraded
Degradation of CBEB1 in vitro (CBEB1): not degraded
Degradation of HH3 in vitro (HH3): not degraded
Degradation of Actin in vitro (Actin): not degraded
Degradation of GRP75 in vitro (GRP75): not degraded
Binding to c-MYC by co-immunoprecipitation (c-MYC [7]): verified; also recorded: dose-dependent
Pull-down of recombinant MAX (MAX [8]): Weak pull-down
c-MYC staining in human kidney cells (c-MYC [9]): dose-dependent decrease
c-MYB decrease compared to PBS (c-MYB): 45%
CEBP-δ degradation (CEBP-δ): < 5%
Body weight at long-term follow up compared to sham (intestinal polyps): increase
Cancer gene networks as share of all regulated genes (intestinal polyps): 93%
Day until which mice remained asymptomatic (intestinal polyps): 175 days
Intestinal polyp number at long-term follow up compared to sham (intestinal polyps): significant reduction
MYC expression and MYC-dependent gene networks (intestinal polyps): inhibited
Polyp number compared to sham and pre-treatment samples (intestinal polyps): reduced the polyp number
Subset of colorectal cancer genes (intestinal polyps): 54%
Survival (Kaplan Mayer plot) (intestinal polyps): increased survival
Cytotoxic effects in human kidney cells (human kidney cells): not detected
Bladder size % Sham (range) (MB49 bladder tumors): 69 (53-85)^a % Sham
Bladder size, weight and pathology compared to day 12 (MB49 bladder tumors): remained unchanged
Bladder weight g^−1 (range) (MB49 bladder tumors): 5.3 (3.9-6.3)^a g^−1
Bladder weights and pathology scores versus sham (MB49 bladder tumors): remained lower than in the sham group
Cancer gene networks as share of all regulated genes, compared to sham (MB49 bladder tumors): 96.6%
Day until which mice remained asymptomatic (MB49 bladder tumors): 27 days and 34 days
Efficiency compared with E. coli 536 supernatant (tumor progression, gene expression) (MB49 bladder tumors): more efficient
Expression of genes potentially involved in toxicity, compared with E. coli 536-treated mice (MB49 bladder tumors): less strongly expressed
Gene expression inhibited compared to the sham group (MB49 bladder tumors): 95%
Mice with bladder tumors present (MB49 bladder tumors): 15/15
Mice with hematuria (MB49 bladder tumors): 3/15 and 2/12
Subset of bladder cancer related genes inhibited (MB49 bladder tumors): 11.8%
Survival (Kaplan Meyer plot) (MB49 bladder tumors): increased survival
Bladder weight and macroscopic appearance of the bladder [10]: No change
MYC expression in bladders [10]: not regulated
MYC-dependent genes activated [10]: 33
MYC-dependent genes inhibited [10]: 1
MYC-related genes activated [11]: 1
MYC-related genes inhibited [11]: 8
Body weight and macroscopic appearance of organs ([11]; po): No change
MYC expression in intestines ([11]; po): not regulated
